Changes are numbered by the printed parent chain.
T1: human C1s (human, UniProt P09871 16-688)
T1 construct: also called hC1s; serum-derived human C1s (CompTech)
T1 sequence: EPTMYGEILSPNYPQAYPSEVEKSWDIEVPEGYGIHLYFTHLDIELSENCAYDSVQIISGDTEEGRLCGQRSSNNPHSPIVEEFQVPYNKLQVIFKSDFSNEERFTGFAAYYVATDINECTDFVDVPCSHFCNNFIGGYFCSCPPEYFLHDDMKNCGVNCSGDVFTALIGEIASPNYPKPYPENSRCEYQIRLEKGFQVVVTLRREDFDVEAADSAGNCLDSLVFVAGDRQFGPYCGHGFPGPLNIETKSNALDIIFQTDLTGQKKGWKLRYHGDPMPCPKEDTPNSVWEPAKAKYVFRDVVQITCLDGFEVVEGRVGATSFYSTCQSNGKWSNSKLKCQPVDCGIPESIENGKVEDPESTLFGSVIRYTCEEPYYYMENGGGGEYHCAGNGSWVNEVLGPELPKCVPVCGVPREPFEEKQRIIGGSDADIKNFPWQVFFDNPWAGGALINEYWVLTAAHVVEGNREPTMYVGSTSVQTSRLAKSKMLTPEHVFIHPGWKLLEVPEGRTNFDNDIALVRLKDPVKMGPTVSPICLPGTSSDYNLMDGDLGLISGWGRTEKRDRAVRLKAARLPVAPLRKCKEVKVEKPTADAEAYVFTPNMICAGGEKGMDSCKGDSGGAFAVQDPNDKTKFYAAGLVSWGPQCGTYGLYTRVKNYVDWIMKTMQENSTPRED

B1: C1_IPN009VH2-SG4GK/IPN93L0030-SK1 (antibody, human IgG4 S228P, kappa, name in Kabat numbering, V domains shown)
VH: EVMLVESGGGLVKPGGSLRLSCAASGFTFSNYAMSWVRQAPGKGLEWVATISSGGSHTYYLDSVKGRFTISRDNSKDTLYLQMNSLRAEDTALYYCARLFTGYAMDYWGQGTLVTVSS
VL: QIVLTQSPATLSLSPGERATLSCTASSSVSSSYLHWYQQKPGKAPKLWIYSTSNLASGVPSRFSGSGSGTDYTLTISSLQPEDFATYYCHQYYRHHPITFGQGTKLEIKR
notes: also called IPN009VH2/IPN93L0030
B2: C1_IPN92H0026-SG4GK/IPN93L0030-SK1 (antibody, human IgG4 S228P, kappa, name in Kabat numbering, V domains shown)
VH: B1 VH with G66H
VL: B1 VL
notes: also called IPN92H0026/IPN93L0030
B3: C1_IPN92H0033-SG4GK/IPN93L0029-SK1 (antibody, human IgG4 S228P, kappa, name in Kabat numbering, V domains shown)
VH: B1 VH with Y103H
VL: B1 VL with Y93H, H95L
notes: also called IPN92H0033/IPN93L0029
B4: C1_IPN92H0033-SG4GK/IPN93L0030-SK1 (antibody, human IgG4 S228P, kappa, name in Kabat numbering, V domains shown)
VH: B1 VH with Y103H
VL: B1 VL
notes: also called IPN92H0033/IPN93L0030
B5: C1_IPN92H0026-SG4GK/IPN93L0021-SK1 (antibody, human IgG4 S228P, kappa, name in Kabat numbering, V domains shown)
VH: B1 VH with G66H
VL: B1 VL with Y93H, H95L, H96P
notes: also called IPN92H0026/IPN93L0021
B6: C1_IPN92H0033-SG4GK/IPN93L0028-SK1 (antibody, human IgG4 S228P, kappa, name in Kabat numbering, V domains shown)
VH: B1 VH with Y103H
VL: B1 VL with Y93H, H96P
notes: also called IPN92H0033/IPN93L0028
B7: C1_IPN92H0033-SG4GK/IPN93L0023-SK1 (antibody, human IgG4 S228P, kappa, name in Kabat numbering, V domains shown)
VH: B1 VH with Y103H
VL: B1 VL with H96P
notes: also called IPN92H0033/IPN93L0023
B8: C1_IPN92H0026-SG4GK/IPN93L0029-SK1 (antibody, human IgG4 S228P, kappa, name in Kabat numbering, V domains shown)
VH: B1 VH with G66H
VL: B1 VL with Y93H, H95L
notes: also called IPN92H0026/IPN93L0029
B9: C1_IPN92H0026-SG4GK/IPN93L0023-SK1 (antibody, human IgG4 S228P, kappa, name in Kabat numbering, V domains shown)
VH: B1 VH with G66H
VL: B1 VL with H96P
notes: also called IPN92H0026/IPN93L0023
B10: C1_IPN92H0026-SG4GK/IPN93L0031-SK1 (antibody, human IgG4 S228P, kappa, name in Kabat numbering, V domains shown)
VH: B1 VH with G66H
VL: B1 VL with Y93H
notes: also called IPN92H0026/IPN93L0031
B11: C1_IPN92H0033-SG4GK/IPN93L0031-SK1 (antibody, human IgG4 S228P, kappa, name in Kabat numbering, V domains shown)
VH: B1 VH with Y103H
VL: B1 VL with Y93H
notes: also called IPN92H0033/IPN93L0031
B12: C1_IPN92H0026-SG4GK/IPN93L0024-SK1 (antibody, human IgG4 S228P, kappa, name in Kabat numbering, V domains shown)
VH: B1 VH with G66H
VL: B1 VL with H95L
notes: also called IPN92H0026/IPN93L0024
B13: C1_IPN009VH2-SG4GK/IPN93L0031-SK1 (antibody, human IgG4 S228P, kappa, name in Kabat numbering, V domains shown)
VH: B1 VH
VL: B1 VL with Y93H
notes: also called IPN009VH2/IPN93L0031
B14: C1_IPN92H0026-SG4GK/IPN93L0028-SK1 (antibody, human IgG4 S228P, kappa, name in Kabat numbering, V domains shown)
VH: B1 VH with G66H
VL: B1 VL with Y93H, H96P
notes: also called IPN92H0026/IPN93L0028
B15: C1_IPN92H0033-SG4GK/IPN93L0021-SK1 (antibody, human IgG4 S228P, kappa, name in Kabat numbering, V domains shown)
VH: B1 VH with Y103H
VL: B1 VL with Y93H, H95L, H96P
notes: also called IPN92H0033/IPN93L0021

Target: T1, human C1s
Test: SPR, Ab captured; pH 5.8, 3 uM Ca
Description: (§1) All variants were transiently expressed and purified by the method described above. The binding affinity of each histidine-substituted variant at pH 7.4 and pH 5.8 was determined at 37 degrees C. using Biacore T200 instrument (GE Healthcare). Recombinant Protein A/G (Pierce) was immobilized onto all flow cells of a CM4 sensor chip using an amine coupling kit (GE Healthcare). Antibodies and analytes were prepared in 7(+) buffer (20 mM ACES, 150 mM NaCl, 1.2 mM CaCl2, 0.05% Tween 20, 0.005% NaN3, pH 7.4), 5(+) buffer (20 mM ACES, 150 mM NaCl, 1.2 mM CaCl2, 0.05% Tween 20, 0.005% NaN3, pH 5.8), or 5(−) buffer (20 mM ACES, 150 mM NaCl, 3 micro M CaCl2, 0.05% Tween 20, 0.005% NaN3, pH 5.8). Each antibody was captured onto the sensor surface by protein A/G. Antibody capture levels were aimed at 200 resonance unit (RU). Serum-derived human C1s (CompTech) or recombinant C1s prepared in EXAMPLE 1 was injected at 50 nM, followed by dissociation. The sensor surface was regenerated in each cycle with 10 mM Glycine-HCl, pH 1.5. […] The ratio of KD 5.8+ to KD 7.4+(“KD 5+/7+”) and that of KD 5.8− to KD 7.4+(“KD 5−/7+”) were calculated. When the KD 5+/7+ or KD 5−/7+ of a variant is larger than that of the parent antibody IPN009VH2-SG4GK/IPN009VK3-SK1, that variant is considered to be “pH”- or “pH and Ca”-dependent, respectively. When binding response in 5(+) buffer and/or in 5(−) buffer of a variant is much lower than that of IPN09VH2/IPN009VK3, that variant is also considered as “pH”- and/or “pH and Ca”-dependent. Therefore, such mutations are effective to generate “pH”- and/or “pH and Ca”-dependent antibody. To further enhance “pH” and/or “pH and Ca” dependency, a combination of histidine mutations was conducted. Antibodies with combinations of histidine mutations were evaluated using Biacore by the method described above.

Kd | koff | kon | Binder
1.3 nM | 0.00577 s⁻¹ | 4.42e+06 M⁻¹ s⁻¹ | B1
270 nM | 0.0012 s⁻¹ | 4460 M⁻¹ s⁻¹ | B2
9.79 nM | 0.00376 s⁻¹ | 384000 M⁻¹ s⁻¹ | B3
2560 nM | 0.0603 s⁻¹ | 23500 M⁻¹ s⁻¹ | B4
8.12 nM | 0.17 s⁻¹ | 2.1e+07 M⁻¹ s⁻¹ | B5
8.5 nM | 0.0056 s⁻¹ | 658000 M⁻¹ s⁻¹ | B6
11.3 nM | – | – | B7
5.07 nM | 0.00412 s⁻¹ | 812000 M⁻¹ s⁻¹ | B8
9.95 nM | 0.0619 s⁻¹ | 6.23e+06 M⁻¹ s⁻¹ | B9
215 nM | 0.00133 s⁻¹ | 6170 M⁻¹ s⁻¹ | B10
– | 0.00934 s⁻¹ | 674000 M⁻¹ s⁻¹ | B11
15.1 nM | 0.112 s⁻¹ | 7.43e+06 M⁻¹ s⁻¹ | B12
– | 0.00352 s⁻¹ | 711 M⁻¹ s⁻¹ | B13
27.6 nM | 0.176 s⁻¹ | 6.4e+06 M⁻¹ s⁻¹ | B14
7.59 nM | – | – | B15

Target: T1, human C1s
Test: SPR, Ab captured; pH 7.4, 1.2 mM Ca
Description: as §1

Kd | koff | kon | Binder
25.5 nM | 0.0156 s⁻¹ | 612000 M⁻¹ s⁻¹ | B1
24.8 nM | 0.0103 s⁻¹ | 414000 M⁻¹ s⁻¹ | B2
15.4 nM | 0.0074 s⁻¹ | 479000 M⁻¹ s⁻¹ | B3
24.2 nM | 0.0146 s⁻¹ | 603000 M⁻¹ s⁻¹ | B4
0.804 nM | 0.000472 s⁻¹ | 587000 M⁻¹ s⁻¹ | B5
6.5 nM | 0.00218 s⁻¹ | 335000 M⁻¹ s⁻¹ | B6
3.25 nM | 0.000978 s⁻¹ | 301000 M⁻¹ s⁻¹ | B7
9.03 nM | 0.00457 s⁻¹ | 507000 M⁻¹ s⁻¹ | B8
1.16 nM | 0.000608 s⁻¹ | 523000 M⁻¹ s⁻¹ | B9
684 nM | 0.016 s⁻¹ | 23300 M⁻¹ s⁻¹ | B10
– | 0.00187 s⁻¹ | 522000 M⁻¹ s⁻¹ | B11
1.14 nM | 0.00047 s⁻¹ | 412000 M⁻¹ s⁻¹ | B12
– | 8e-06 s⁻¹ | 47600 M⁻¹ s⁻¹ | B13
4.76 nM | 0.00255 s⁻¹ | 535000 M⁻¹ s⁻¹ | B14
1.92 nM | 0.000672 s⁻¹ | 350000 M⁻¹ s⁻¹ | B15

Target: T1, human C1s
Test: SPR, Ab captured; pH 5.8, 1.2 mM Ca
Description: as §1

Kd | koff | kon | Binder
45.6 nM | 0.0222 s⁻¹ | 487000 M⁻¹ s⁻¹ | B1
26.2 nM | 0.0592 s⁻¹ | 2.26e+06 M⁻¹ s⁻¹ | B2
24.6 nM | 0.0222 s⁻¹ | 905000 M⁻¹ s⁻¹ | B3
89.3 nM | 0.0449 s⁻¹ | 503000 M⁻¹ s⁻¹ | B4
1.95 nM | 0.00149 s⁻¹ | 763000 M⁻¹ s⁻¹ | B5
20.1 nM | 0.0144 s⁻¹ | 717000 M⁻¹ s⁻¹ | B6
5.05 nM | 0.00282 s⁻¹ | 559000 M⁻¹ s⁻¹ | B7
10.2 nM | 0.00613 s⁻¹ | 602000 M⁻¹ s⁻¹ | B8
1.53 nM | 0.00124 s⁻¹ | 813000 M⁻¹ s⁻¹ | B9
4290 nM | 0.0178 s⁻¹ | 4140 M⁻¹ s⁻¹ | B10
– | 0.00209 s⁻¹ | 807000 M⁻¹ s⁻¹ | B11
3.16 nM | 0.00143 s⁻¹ | 451000 M⁻¹ s⁻¹ | B12
– | 0.0127 s⁻¹ | 532000 M⁻¹ s⁻¹ | B13
10.6 nM | 0.0059 s⁻¹ | 557000 M⁻¹ s⁻¹ | B14
5.01 nM | 0.00293 s⁻¹ | 585000 M⁻¹ s⁻¹ | B15

Target: T1, human C1s
Test: SPR; KD pH 5.8 1.2 mM Ca / KD pH 7.4 1.2 mM Ca
Description: as §1

KD 5(+)/7(+) | Binder
1.8 | B1
1.1 | B2
1.6 | B3
3.7 | B4
2.4 | B5
3.1 | B6
1.6 | B7
1.1 | B8
1.3 | B9
6.3 | B10
0.7 | B11
2.8 | B12
142 | B13
2.2 | B14
2.6 | B15

Target: T1, human C1s
Test: SPR; KD pH 5.8 3 uM Ca / KD pH 7.4 1.2 mM Ca
Description: as §1

KD 5(-)/7(+) | Binder
0.1 | B1
10.9 | B2
0.6 | B3
106 | B4
10.1 | B5
1.3 | B6
3.5 | B7
0.6 | B8
8.6 | B9
0.3 | B10
3.9 | B11
13.2 | B12
29500 | B13
5.8 | B14
4 | B15
